Values of other authors, collected in patent US11173109B2, “Compositions in the form of an injectable aqueous solution comprising amylin, an amylin receptor agonist or an amylin analog and a co-polyamino acid” (ADOCIA, priority 2017, dated 2021).
No end group written: not given here.

Settings: neutral pH

## amylin: peptide of 37 amino acids which is co-stored and co-secreted with insulin (KCNTATCATQRLANFLVHSSNNFGAILSSTNVGSNTY; not fully specified (C-terminus, bridges); cysteine pairing not given here; UniProt P10997 34-70, looked up)
  time for which amylin is stable: less than one
